Article PMC3561105, “A Quartet of PIF bHLH Factors Provides a Transcriptionally Centered Signaling Hub That Regulates Seedling Morphogenesis through Differential Expression-Patterning of Shared Target Genes in Arabidopsis”
Positions count from the first letter of the chain named.

T1: GST-PIF3-Flag (Arabidopsis thaliana, UniProt O80536 1-524)
T1 sequence: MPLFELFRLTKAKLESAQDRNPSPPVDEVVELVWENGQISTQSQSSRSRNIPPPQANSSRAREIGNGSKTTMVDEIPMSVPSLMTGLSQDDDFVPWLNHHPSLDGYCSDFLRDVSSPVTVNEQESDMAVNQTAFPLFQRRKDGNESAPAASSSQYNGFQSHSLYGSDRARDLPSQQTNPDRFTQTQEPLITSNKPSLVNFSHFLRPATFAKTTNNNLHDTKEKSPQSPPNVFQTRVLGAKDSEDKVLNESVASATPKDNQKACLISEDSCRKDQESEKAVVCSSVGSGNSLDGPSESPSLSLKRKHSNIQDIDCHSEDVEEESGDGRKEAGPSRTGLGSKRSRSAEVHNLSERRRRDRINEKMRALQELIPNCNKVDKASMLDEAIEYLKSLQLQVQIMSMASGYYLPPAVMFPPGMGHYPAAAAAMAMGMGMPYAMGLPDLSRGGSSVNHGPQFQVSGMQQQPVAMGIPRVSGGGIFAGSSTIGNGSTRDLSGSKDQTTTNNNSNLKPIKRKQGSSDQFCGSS

B1: PIL1b mut2 (1st G-box) (dsDNA)
DNA 1: ACGCGGCATTCACGGGAAGTGCACGTGAACTTGGCCA
DNA 2: TGGCCAAGTTCACGTGCACTTCCCGTGAATGCCGCGT
B2: PIL1b mut3 (2nd G-box) (dsDNA)
DNA 1: B1 DNA 1 with G15T, T26G
DNA 2: B1 DNA 2 with A12C, C23A
B3: HB2 mut5 (PBE-box) (dsDNA)
DNA 1: GGGTCAGATCCACGTGAAGTTCCCATGCTTTCCATGC
DNA 2: GCATGGAAAGCATGGGAACTTCACGTGGATCTGACCC
B4: RGA1 mut2 (1st G-box) (dsDNA)
DNA 1: GACCCATTAACACGGGGATCCATCACGTGCTGTCAGTTT
DNA 2: AAACTGACAGCACGTGATGGATCCCCGTGTTAATGGGTC
B5: RGA1 mut3 (2nd G-box) (dsDNA)
DNA 1: B4 DNA 1 with G15T, T28G
DNA 2: B4 DNA 2 with A12C, C25A
B6: PIL1b WT (dsDNA)
DNA 1: B1 DNA 1 with G15T
DNA 2: B1 DNA 2 with C23A
B7: ATHB-2 (HB2) WT (dsDNA)
DNA 1: B3 DNA 1 with C23A
DNA 2: B3 DNA 2 with G15T
B8: PHYB WT (dsDNA)
DNA 1: ACCATTAGCCCACGTGATCTTGGGCC
DNA 2: GGCCCAAGATCACGTGGGCTAATGGT
B9: RGA1 WT (dsDNA)
DNA 1: B4 DNA 1 with G15T
DNA 2: B4 DNA 2 with C25A
B10: IAA2 WT (dsDNA)
DNA 1: TGAGGCCGCCCATGTGGACACGACTC
DNA 2: GAGTCGTGTCCACATGGGCGGCCTCA
B11: IBH1 WT (dsDNA)
DNA 1: AGGCCATAGCCATGTGCCTTCATGTGGTGGTTGGCC
DNA 2: GGCCAACCACCACATGAAGGCACATGGCTATGGCCT
B12: AT4G30410 (bHLH159) WT (dsDNA)
DNA 1: ATAGGAGAAGCACATGCATGCACATGCTACGAATGG
DNA 2: CCATTCGTAGCATGTGCATGCATGTGCTTCTCCTAT
B13: HB2 mut4 (G-box and PBE-box) (dsDNA)
DNA 1: B3 DNA 1 with T15G
DNA 2: B3 DNA 2 with A23C
B14: HB2 mut2 (G-box) (dsDNA)
DNA 1: B3 DNA 1 with T15G, C23A
DNA 2: B3 DNA 2 with G15T, A23C

Biological target: T1, GST-PIF3-Flag
Assay: competition; EMSA; competes similar to WT; DPI-ELISA: TBS-T (20 mM Tris-HCl pH 7.5, 180 mM NaCl, 0.1% Tween 20), 5% milk block, 2 pmol probe/well, 100 ng protein, 1 h, competitor 2/10/50 pmol; EMSA: 100
Details: protein: recombinant, tags: N-term GST, chain copies: 2, blunt

Binder | binding result
B1 | binds
B2 | binds
B3 | binds
B4 | binds
B5 | binds

Biological target: T1, GST-PIF3-Flag
Assay: EMSA; DPI-ELISA: TBS-T (20 mM Tris-HCl pH 7.5, 180 mM NaCl, 0.1% Tween 20), 5% milk block, 2 pmol probe/well, 100 ng protein, 1 h, competitor 2/10/50 pmol; EMSA: 100
Details: protein: recombinant, tags: N-term GST, chain copies: 2, label: 5' biotin on one strand (probe), blunt

Binder | binding result
B6 | binds
B7 | binds

Biological target: T1, GST-PIF3-Flag
Assay: DPI-ELISA; DPI-ELISA: TBS-T (20 mM Tris-HCl pH 7.5, 180 mM NaCl, 0.1% Tween 20), 5% milk block, 2 pmol probe/well, 100 ng protein, 1 h, competitor 2/10/50 pmol; EMSA: 100
Details: protein: recombinant, tags: N-term GST, chain copies: 2, label: 5' biotin on one strand (probe), blunt

Binder | binding result
B8 | binds
B9 | binds
B10 | binds
B11 | binds
B12 | binds

Biological target: T1, GST-PIF3-Flag
Assay: competition; EMSA; no competition; DPI-ELISA: TBS-T (20 mM Tris-HCl pH 7.5, 180 mM NaCl, 0.1% Tween 20), 5% milk block, 2 pmol probe/well, 100 ng protein, 1 h, competitor 2/10/50 pmol; EMSA: 100
Details: protein: recombinant, tags: N-term GST, chain copies: 2, blunt

Binder | binding result
B13 | no binding
B14 | no binding
